Measurements: publication PMC12316515, “PIF4‐dependent 2‐hydroxymelatonin and 3‐hydroxymelatonin biosynthesis is involved in skotomorphogenic seedling growth in Arabidopsis thaliana”

T1: Trx-PIF4 (Arabidopsis thaliana, UniProt Q8W2F3 1-430)
T1 sequence: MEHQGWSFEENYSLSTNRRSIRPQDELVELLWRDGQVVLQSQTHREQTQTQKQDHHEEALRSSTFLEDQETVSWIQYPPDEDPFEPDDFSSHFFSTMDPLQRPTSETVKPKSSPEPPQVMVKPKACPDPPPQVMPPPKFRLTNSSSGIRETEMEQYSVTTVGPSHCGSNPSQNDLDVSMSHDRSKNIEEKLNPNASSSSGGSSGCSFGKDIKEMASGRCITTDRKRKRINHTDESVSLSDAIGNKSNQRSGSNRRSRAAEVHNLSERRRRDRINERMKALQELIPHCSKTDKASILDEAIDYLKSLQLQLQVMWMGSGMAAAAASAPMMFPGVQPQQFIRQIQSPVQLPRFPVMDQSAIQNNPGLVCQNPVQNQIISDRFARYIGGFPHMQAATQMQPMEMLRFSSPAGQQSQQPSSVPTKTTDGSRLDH

B1: M2H E2 (dsDNA)
DNA 1: GATGACTATTTTCATTTGATAATATATCCA
DNA 2: TGGATATATTATCAAATGAAAATAGTCATC
B2: AtM2H (Arabidopsis melatonin 2-hydroxylase) (Arabidopsis thaliana) (protein)
chain: MEETNKSVVNDYFTSAMELTESGDPHVPTRYILPPSQRPMLGPSIGTSTINLPVIDLSFLHDPLLRLCVIHEIELACKGFGFFQVINHGISSAVVKDAQDSATRFFDLPADEKMHLVSDNFQEPVRYGTSINHSTDRVHYWRDFIKHYSHPLSNWINLWPSNPPCYKEKVGKYAEATHVLHKQLIEAISESLGLEKNYLQEEIEEGSQVMAVNCYPACPEPEIALGMPPHSDYGSLTILLQSSEGLQIKDCNNNWVCVPYIEGALIVQLGDQVEVMSNGIYKSVVHRVTVNKDYKRLSFASLHSLPMHKKISPATQLVNENKPAAYGEFSFNDFLDYISRNDITQKRFIDTLRKKNL
B3: M3H E1/E2 (dsDNA)
DNA 1: CATACCATATGTCTTTTATCATCTGTCCTT
DNA 2: AAGGACAGATGATAAAAGACATATGGTATG
B4: M3H E3 (dsDNA)
DNA 1: CAATGTTAAAGACACATGAACGTTGGGATA
DNA 2: TATCCCAACGTTCATGTGTCTTTAACATTG

Experiments:
Trx-PIF4 [1] = target: T1, Trx-PIF4; test: EMSA; LightShift Chemiluminescent EMSA Kit, 100 fmol biotin-labeled DNA, 20 min at room temperature, native 6% PAGE in 0.5x TBE; binding buffer, salt and pH not stated; settings: protein: recombinant; tags: N-terminal Trx (pET32b); label: 3' biotin
purified protein = substrate: COc1ccc2[nH]cc(CCNC(C)=O)c2c1; test: purified protein; settings: pH 8.0, GST fusion protein, substrate not named beside the value, implied by M2H activity
Trx-PIF4 [2] = target: T1, Trx-PIF4; test: EMSA; greatest binding of the probes; LightShift Chemiluminescent EMSA Kit, 100 fmol biotin-labeled DNA, 20 min at room temperature, native 6% PAGE in 0.5x TBE; binding buffer, salt and pH not stated; settings: protein: recombinant; tags: N-terminal Trx (pET32b); label: 3' biotin

Binder	binding result (Trx-PIF4 [1])	also measured
B1	binds	
B2		Km (purified protein): 355 µM
B3	binds	
B4		binding result (Trx-PIF4 [2]): binds
